From article PMC11723632 (PLOS Pathogens, 2024) come the findings set out here.

In the test the target is EBOV sGP (secreted form of GP) (Zaire ebolavirus, Mayinga-76 …, UniProt P60170). The test is described as follows: ELISA. The conditions noted are these: both partners purified.
Chain of EBOV sGP (secreted form of GP) (P60170 33-305): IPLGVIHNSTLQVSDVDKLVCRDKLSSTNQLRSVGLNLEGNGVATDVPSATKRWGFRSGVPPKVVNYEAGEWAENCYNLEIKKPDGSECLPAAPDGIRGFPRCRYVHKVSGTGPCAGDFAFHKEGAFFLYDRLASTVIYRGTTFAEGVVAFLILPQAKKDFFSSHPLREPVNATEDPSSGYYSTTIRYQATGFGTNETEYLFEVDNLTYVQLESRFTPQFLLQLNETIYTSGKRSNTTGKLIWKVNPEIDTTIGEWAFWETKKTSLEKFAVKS

B1: Nanosota-EB2-His (VHH)
VHH: QVQLQESGGGVVQAGGSLRLSCSASGRTFSNYAMAWFRQAPGKDREFAAGINYNGERTAYADSVKGRFTISRDDAKNTVYLQMNSLKPEDTAVYSCAARPWSIANLAYTYDSWGQGTQVTVSS
In the case of B1, the binding result is listed as “no binding”.

B2: Nanosota-EB1-His (VHH)
VHH: QVQLQESGGGQVQAGGSLRLSCAASGSTSVIYAMGWYRQAPGKQRELVAAITRGVGSTNYADSVKGRFTISRDNAKNTMYLQMNSLKPEDTAVYYCNARLLVAPPPYEYDYWGQGTQVTVSS
As for B2, the binding result was “binds”.
